B1: LINE1-full (parent)
chain: UACGUAGGUGGUUUUCCCCUGAUAGUGCUAAGGGGGCCUGGAAGUUUGGACUGGGCAGAGCUCAACACAGCGUGGCAAAGUGGCUGUGGCUAGACUGCCUCUCUGGAUUCCUCGUCACUCAGCAGGGCAUCUCUGAGAGAAAUGCC

The data set covers variants of B1. Description: self-cleavage, relative activity (ratio to wild type); higher = more cleavage; in vitro, sequencing; the parent is a self-cleaving ribozyme.
For the variant UACGUAGGUGGUUUUCCCCUGAUAGUGCUAAGGGGGCCUGGAAGUUUGGACUGGGCAGAGCUCGACACAGCGUGGCAAAGUGGCUGUGGCUAGACUGCCUCUCUGGAUUCCUCGUCACUCAGCAGGGCAUCUCAGAGAGAAAUGCC [A64G U134A], the self-cleavage turned out to be 0.24.
As for UACGUAGGUGGUUUUCCCCUGAUAGUGCUAAGGGGGCCUGGAAGUUUGGACUGGGCAGAGCUCGACACAGCGUGGCAAAGUGGCUGUGGCUAGACUGCCUCUCUGGAUUCCUCGUCACUCAGCAUGGCAUCUCUGAGAGAAAUGCC [A64G G125U], the self-cleavage was 0.33.
To UACGUAGGUGGUUUUCCCCUGAUAGUGCUAAGGGGGCCUGGAAGUUUGGACUGGGCAGAGCUCGACACAGCGUGGCAAAGUGGCUGUGGCUAGACUGCCACUCUGGAUUCCUCGUCACUCAGCAGGGCAUCUCUGAGAGAAAUGCC [A64G U100A] belongs 0.23.
UACGUAGGUGGUUUUCCCCUGAUAGUGCUAAGGGGGCCUGGAAGUUUGGACUGGGCAGAGCUCGACACAGCGUGGCAAAGUGGCUGUGGCUAGACUGCCCCUCUGGAUUCCUCGUCACUCAGCAGGGCAUCUCUGAGAGAAAUGCC [A64G U100C]: the self-cleavage came out at 0.29.
The figure for UACGUAGGUGGUUUUCCCCUGAUAGUGCUAAGGGGGCCUGGAAGUUUGGACUGGGCAGAGCUCGACACAGCGUGGCAAAGUGGCUGUGGCUAGACUGCCUCUCUGUAUUCCUCGUCACUCAGCAGGGCAUCUCUGAGAGAAAUGCC [A64G G106U] is 0.15; for UACGUAGGUGGUUUUCCCCUGAUAGUGCUAAGGGGGCCUGGAAGUUUGGACUGGGCAGAGCUCGACACAGCGUGGCAAAGUGGCUGUGGCUAGACUGCCUCUCUGGAUUCCUCGUAACUCAGCAGGGCAUCUCUGAGAGAAAUGCC [A64G C116A] it is 0.1; for UACGUAGGUGGUUUUCCCCUGAUAGUGCUAAGGGGGCCUGGAAGUUUGGACUGGGCAGAGCUCGACACAGCGUGGCAAAGUGGCUGUGGCUAGACUGCCUCUCUGGAUUCCUUGUCACUCAGCAGGGCAUCUCUGAGAGAAAUGCC [A64G C113U] it is 0.13.
As to UACGUAGGUGGUUUUCCCCUGAUAGUGCUAAGGGGGCCUGGAAGUUUGGACUGGGCAGAGCUCGACACAGCGUGGCAAAGUGGCUGUGGCUAGACUGCCUCUCUGGAUUCCUAGUCACUCAGCAGGGCAUCUCUGAGAGAAAUGCC [A64G C113A], the self-cleavage is 0.17.
For the variant UACGUAGGUGGUUUUCCCCUGAUAGUGCUAAGGGGGCCUGGAAGUUUGGACUGGGCAGAGCUCGACACAGCGUGGCAAAGCGGCUGUGGCUAGACUGCCUCUCUGGAUUCCUCGUCACUCAGCAGGGCAUCUCUGAGAGAAAUGCC [A64G U81C], the self-cleavage is 0.3.
Consider UACGUAGGUGGUUUUCCCCUGAUAGUGCUAAGGGGGCCUGGAAGUUUGGACUGGGCAGAGCUCGACACAGCGUGGUAAAGUGGCUGUGGCUAGACUGCCUCUCUGGAUUCCUCGUCACUCAGCAGGGCAUCUCUGAGAGAAAUGCC [A64G C76U], for which the self-cleavage was determined as 0.13.
The figure for UACGUAGGUGGUUUUCCCCUGAUAGUGCUAAGGGGGCCUGGAAGUUUGGACUGGGCAGAGCUCGACACAGCGUGGCAAAGUGGCUGUGGCUAGACUGCCUCUCUGGAUUCCUCGUCACUCAGUAGGGCAUCUCUGAGAGAAAUGCC [A64G C123U] is 0.26; for UACGUAGGUGGUUUUCCCCUGAUAGUGCUAAGGGGGCCUGGAAGUUUGGACUGGGCAGAGCUCGACACAGCGUGGCAAAGUGGCUGUGGCUAGACUGCCUCUCUGGAUUCCUCGUCACUCAGCAGGGCAUCUCUGAGAGAAACGCC [A64G U143C] it is 0.26; for UACGUAGGUGGUUUUCCCCUGAUAGUGCUAAGGGGGCCUGGAAGUUUGGACUGGGCAGAGCUCGACACAGCGCGGCAAAGUGGCUGUGGCUAGACUGCCUCUCUGGAUUCCUCGUCACUCAGCAGGGCAUCUCUGAGAGAAAUGCC [A64G U73C] it is 0.17.
The figure for UACGUAGGUGGUUUUCCCCUGAUAGUGCUAAGGGGGCCUGGAAGUUUGGACUGGGCAGAGCUCGACACAGCGAGGCAAAGUGGCUGUGGCUAGACUGCCUCUCUGGAUUCCUCGUCACUCAGCAGGGCAUCUCUGAGAGAAAUGCC [A64G U73A] is 0.19.
Regarding UACGUAGGUGGUUUUCCCCUGAUAGUGCUAAGGGGGCCUGGAAGUUUGGACUGGGCAGAGCUCGACACAGCGUGGCAAAGUGGCUGUGGCUAGACUGCCUCUCUGGAUUCCUCGACACUCAGCAGGGCAUCUCUGAGAGAAAUGCC [A64G U115A], the self-cleavage came out at 0.08.
For the variant UACGUAGGUGGUUUUCCCCUGAUAGUGCUAAGGGGGCCUGGAAGUUUGGACUGGGCAGAGCUCGACACAGCGUGGCAAAGUGGCUGUGGCUAGACUGCCUCUCUGGAUUCCUCGGCACUCAGCAGGGCAUCUCUGAGAGAAAUGCC [A64G U115G], the self-cleavage came out at 0.35.
To UACGUAGGUGGUUUUCCCCUGAUAGUGCUAAGGGGGCCUGGAAGUUUGGACUGGGCAGAGCUCGACACAGCGUGGCAAAGUGGCUGUGGCUAGACUGCCUCACUGGAUUCCUCGUCACUCAGCAGGGCAUCUCUGAGAGAAAUGCC [A64G U102A] belongs 0.15; to UACGUAGGUGGUUUUCCCCUGAUAGUGCUAAGGGGGCCUGGAAGUUUGGACUGGGCAGAGCUCGACACAGCGUGGCAAAGUGGCUGUGGCUAGACUGCCUCUCUGGACUCCUCGUCACUCAGCAGGGCAUCUCUGAGAGAAAUGCC [A64G U108C], 0.31.
The figure for UACGUAGGUGGUUUUCCCCUGAUAGUGCUAAGGGGGCCUGGAAGUUUGGACUGGGCAGAGCUCGACACAGCGUGGCAAAGUGGCAGUGGCUAGACUGCCUCUCUGGAUUCCUCGUCACUCAGCAGGGCAUCUCUGAGAGAAAUGCC [A64G U85A] is 0.07; for UACGUAGGUGGUUUUCCCCUGAUAGUGCUAAGGGGGCCUGGAAGUUUGGACUGGGCAGAGCUCGACACAGCGUGGCAAAGUGGCCGUGGCUAGACUGCCUCUCUGGAUUCCUCGUCACUCAGCAGGGCAUCUCUGAGAGAAAUGCC [A64G U85C] it is 0.1; for UACGUAGGUGGUUUUCCCCUGAUAGUGCUAAGGGGGCCUGGAAGUUUGGACUGGGCAGAGCUCGACACAGCGUGGCAAAGUGGCUGUGGCUAGACUGCUUCUCUGGAUUCCUCGUCACUCAGCAGGGCAUCUCUGAGAGAAAUGCC [A64G C99U] it is 0.18.
With UACGUAGGUGGUUUUCCCCUGAUAGUGCUAAGGGGGCCUGGAAGUUUGGACUGGGCAGAGCUCGACACAGCGUGGCAAAGUGGCUGUGGCUAGACUGCCUCUCUGGAUCCCUCGUCACUCAGCAGGGCAUCUCUGAGAGAAAUGCC [A64G U109C], the self-cleavage came to 0.2.
Take UACGUAGGUGGUUUUCCCCUGAUAGUGCUAAGGGGGCCUGGAAGUUUGGACUGGGCAGAGCUCGACACAGCGUGGCAAAGUGGCUGUGGCUAGACUGCCUCUCUGGAUACCUCGUCACUCAGCAGGGCAUCUCUGAGAGAAAUGCC [A64G U109A]: the self-cleavage was found to be 0.14.
The figure for UACGUAGGUGGUUUUCCCCUGAUAGUGCUAAGGGGGCCUGGAAGUUUGGACUGGGCAGAGCUCGACACAGCGUGGCAAAGUGGCUGUGGCUAGACUGCCUCUCUGGAUUCCUCGUCAUUCAGCAGGGCAUCUCUGAGAGAAAUGCC [A64G C118U] is 0.29; for UACGUAGGUGGUUUUCCCCUGAUAGUGCUAAGGGGGCCUGGAAGUUUGGACUGGGCAGAGCUCUGCACAGCGUGGCAAAGUGGCUGUGGCUAGACUGCCUCUCUGGAUUCCUCGUCACUCAGCAGGGCAUCUCUGAGAGAAAUGCC [A64U A65G] it is 0.07; for UACGUAGGUGGUUUUCCCCUGAUAGUGCUAAGGGGGCCUGGAAGUUUGGACUGGGCAGAGCUCGACACAGCGUGGCAAAGUGGCUGUGGCUAGACUGCCUCUCUGGAUUCCUCGUCACUCAGCAGGGCAUCUCUGAGAGAAAUACC [A64G G144A] it is 0.21.
The figure for UACGUAGGUGGUUUUCCCCUGAUAGUGCUAAGGGGGCCUGGAAGUUUGGACUGGGCAGAGCUCGACACAGCGUGGCAAAGUGGCUGUGGCUAGACUCCCUCUCUGGAUUCCUCGUCACUCAGCAGGGCAUCUCUGAGAGAAAUGCC [A64G G97C] is 0.11; for UACGUAGGUGGUUUUCCCCUGAUAGUGCUAAGGGGGCCUGGAAGUUUGGACUGGGCAGAGCUCGACACAGCGUGGCAAAGUGGCUGUGGCUAGACUACCUCUCUGGAUUCCUCGUCACUCAGCAGGGCAUCUCUGAGAGAAAUGCC [A64G G97A] it is 0.07.
Regarding UACGUAGGUGGUUUUCCCCUGAUAGUGCUAAGGGGGCCUGGAAGUUUGGACUGGGCAGAGCUCGACACAGCGUGGCAAAGUGGCUGCGGCUAGACUGCCUCUCUGGAUUCCUCGUCACUCAGCAGGGCAUCUCUGAGAGAAAUGCC [A64G U87C], the self-cleavage was determined as 0.06.
With UACGUAGGUGGUUUUCCCCUGAUAGUGCUAAGGGGGCCUGGAAGUUUGGACUGGGCAGAGCUCGACACAGCGUGGCAAAGUGGCUGUGGCUAGACUGCCUCUCUGGAUUCCUCGUCACACAGCAGGGCAUCUCUGAGAGAAAUGCC [A64G U119A], the self-cleavage turned out to be 0.32.
Regarding UACGUAGGUGGUUUUCCCCUGAUAGUGCUAAGGGGGCCUGGAAGUUUGGACUGGGCAGAGCUCGACACAGCGUGGCAAAGUGGCUGUGGCUAGACUGCCUCUCUAGAUUCCUCGUCACUCAGCAGGGCAUCUCUGAGAGAAAUGCC [A64G G105A], the self-cleavage was determined as 0.03.
To UACGUAGGUGGUUUUCCCCUGAUAGUGCUAAGGGGGCCUGGAAGUUUGGACUGGGCAGAGCUCGACACAGCGUGGCAAAGUGGCUGUGGCUAGACUGCCUCUCCGGAUUCCUCGUCACUCAGCAGGGCAUCUCUGAGAGAAAUGCC [A64G U104C] belongs 0.59.
The figure for UACGUAGGUGGUUUUCCCCUGAUAGUGCUAAGGGGGCCUGGAAGUUUGGACUGGGCAGAGCUCGACACAGCGUGGCAAAGUGGCUGUGGCUAGACUGUCUCUCUGGAUUCCUCGUCACUCAGCAGGGCAUCUCUGAGAGAAAUGCC [A64G C98U] is 0.11; for UACGUAGGUGGUUUUCCCCUGAUAGUGCUAAGGGGGCCUGGAAGUUUGGACUGGGCAGAGCUCGACACAGCGUGGCAAAGUGGCUGUGGCUAGACUGCCUCUCUGGAUUCCACGUCACUCAGCAGGGCAUCUCUGAGAGAAAUGCC [A64G U112A] it is 0.16.
Consider UACGUAGGUGGUUUUCCCCUGAUAGUGCUAAGGGGGCCUGGAAGUUUGGACUGGGCAGAGCUCGACACAGCGUGGCAAAGUGGCUGUGGCUAGACCGCCUCUCUGGAUUCCUCGUCACUCAGCAGGGCAUCUCUGAGAGAAAUGCC [A64G U96C], for which the self-cleavage is 0.15.
To UACGUAGGUGGUUUUCCCCUGAUAGUGCUAAGGGGGCCUGGAAGUUUGGACUGGGCAGAGCUCGACACAGCGUGGCAAAGUGGCUAUGGCUAGACUGCCUCUCUGGAUUCCUCGUCACUCAGCAGGGCAUCUCUGAGAGAAAUGCC [A64G G86A] belongs 0.08; to UACGUAGGUGGUUUUCCCCUGAUAGUGCUAAGGGGGCCUGGAAGUUUGGACUGGGCAGAGCUCGACACAGCGUGGCAAAGUGGCUGUGGCUAGACUGCCUCUCUGGAUUCCUCGUCACUCAGCAGGGCAUCUCUGAGAGAAAUGCU [A64G C146U], 0.24; to UACGUAGGUGGUUUUCCCCUGAUAGUGCUAAGGGGGCCUGGAAGUUUGGACUGGGCAGAGCUCGACACAGCGUGGCAAAGUGGCUGUGGCUAGACUGCCUCUCUGGAUUCCUCGUCACUCAGCAGGUCAUCUCUGAGAGAAAUGCC [A64G G127U], 0.21.
In the case of UACGUAGGUGGUUUUCCCCUGAUAGUGCUAAGGGGGCCUGGAAGUUUGGACUGGGCAGAGCUCGACACAGCGUGGCAAAGUGGCUGUGGCUAGACUGCCUCUCUGGAUUCCUCGUCACUCAGCAGGACAUCUCUGAGAGAAAUGCC [A64G G127A], the self-cleavage worked out at 0.18.

The values above are taken from the RNAGym collection of RNA variant scans (doi:10.7554/elife.90254).
